Measurements: patent publication US20020086007A1, “Angiogenesis-inhibiting peptides and proteins and methods of use” (priority 2000, published 2002)

Assays:
HUVECs [1] = assay: Localization of endostatin into cells and nuclei (cytosol/nuclei extract, immunoprecipitation, Western blot); type: cell-based, human; conditions: 100 ug/ml recombinant endostatin, 30 minutes; FIG. 4
Procedure: 3 T-75 of HUVECs grown at regular growth condition (about 95% confluent) were treated with 100 ug/ml recombinant endostatin for 30 minutes and rinsed with warm 1XPBS and then trypsinized. The control cells from 3 T-75 were the HUVECs treated with the same concentration of endostatin for 1 second. The trypsinized cells were then washed with cold PBS twice. About 40 μl of cell pellet was obtained from all three T-75 flasks. The cytosol extract and nuclei extract was obtained using a nuclei extraction kit (Pierce Company, Rockford, Ill.). The rabbit polyclonal antibodies against human endostatin (Cytimmune Sciences, College Station, Md.) were used to immunoprecipite endostatin protein present in the extract. The immunoprecipited elution was analyzed on Western blot probed with either the same polyclonal antibodies or the mAb 96-2. […] (FIG. 4).

[2] = tested on: tumor induced angiogenesis; conditions: systemic therapy; cited from earlier work
[3] = tested on: cultured endothelial cells; conditions: cited from earlier work
Live HUVECs cells = assay: Staining of live endothelial cells with Alexa-labeled endostatin (fluorescence microscopy); type: cell-based, human; conditions: 8 ug/ml, 5, 15, 30 and 60 minutes; FIG. 6
Procedure: Live HUVECs cells were treated with 8 ug/mI Alexa-labeled endostatin for 5 minutes, 15 minutes, 30 minutes and 60 minutes, land washed with M-200 medium and fixed in 3.7% formaldehyde for 5 minutes and cold methanol for 5 minutes. Alexa-labeled endostatin can be visualized under the fluorescent microscope.

HUVECs [4] = assay: Staining of fixed endothelial cells with Alexa-labeled endostatin; type: cell-based, human; conditions: HUVECs grown at 5 ng/ml VEGF, 40 μg/μl, 30 mins, FIG. 7
Procedure: HUVECs grown at 5 ng/ml VEGF were fixed in 3.7% formaldehyde for 5 mins. and cold methanol for 5 mins. and then stained with […] Alexa-labeled endostatin for 30 mins.

Molecule | localization into cell and nuclei (HUVECs [1]) | suppression of tumor induced angiogenesis [2] | inhibition of endothelial proliferation and angiogenesis [3] | staining of live cells (Live HUVECs cells) | staining of fixed cells (HUVECs [4])
endostatin: antiangiogenic fragment of a most C-terminal non-collagenous region of a collagen protein (SEQ ID NO: 1) (protein) HSHRDFQPVLHLVALNSPLSGGMRGIRGADFQCFQQARAVGLAGTFRAFLSSRLQDLYSIVRRADRAAVPIVNLKDELLFPSWEALFSGSEGPLKPGARIFSFDGKDVLRHPTWPQKSVWHGSDPNGRRLTESYCETWRTEAPSATGQASSLLGGRLLGQSAASCHHAYIVLCIENSFMTASK | able to localize into HUVEC cell and nuclei | nearly complete suppression | potent and specific inhibitor | – | –
Alexa-labeled endostatin: endostatin labeled with Alexa dye, visualized under the fluorescent microscope (conjugate, UniProt P39060 1572-1754, looked up, Endostatin Alexa dye label, endostatin labeled with Alexa dye, visualized under the fluorescent microscope) Endostatin: HSHRDFQPVLHLVALNSPLSGGMRGIRGADFQCFQQARAVGLAGTFRAFLSSRLQDLYSIVRRADRAAVPIVNLKDELLFPSWEALFSGSEGPLKPGARIFSFDGKDVLRHPTWPQKSVWHGSDPNGRRLTESYCETWRTEAPSATGQASSLLGGRLLGQSAASCHHAYIVLCIENSFMTASK | – | – | – | stains the cytosol and nuclei even as early as at the 5 minute time point | stained not only the cytoskeleton network, but also stained the nuclei
